Reference: article PMC8042448 (The Journal of Biological Chemistry, 2021)

B1: recombinant full-length human prion protein huPrP(23–230) (natural protein)
chain: not shown
notes: also called full-length huPrP
B2: C-terminally truncated human prion protein huPrP(23–144) (domain or fragment)
chain: KKRPKPGGWNTGGSRYPGQGSPGGNRYPPQGGGGWGQPHGGGWGQPHGGGWGQPHGGGWGQPHGGGWGQGGGTHSQWNKPSKPKTNMKHMAGAAAAGAVVGGLGGYMLGSAMSRPIIHFGSD
notes: also called N-terminal construct huPrP(23–144); huPrP(23–144)exc

Assays:
Details in all cases: both partners purified
[1] = molecular target: T1, amyloid β (1–42) oligomers (UniProt P05067 672-713); assay: […] (40–80 μM) […] (160–300 μM) in 30 mM Tris-HCl pH 7.4; […]
T1 construct: also called Aβ(1–42)_(oligo); Aβ_(oligo)

[2] = molecular target: T1, amyloid β (1–42) oligomers; assay: […]) in 30 mM Tris-HCl pH 7.4; […]
[3] = molecular target: T1, amyloid β (1–42) oligomers; assay: co-sedimentation

| Binder | binding result [1] | stoichiometry N [2] | stoichiometry N [3] |
| --- | --- | --- | --- |
| B1 | binds |  |  |
| B2 |  | 8.6 | 3.7 |
